Results as given in paper PMC6056500, “Novel interactomics approach identifies ABCA1 as direct target of evodiamine, which increases macrophage cholesterol efflux” (Scientific Reports, 2018).

T1: ATP-binding cassette transporter A1 (ABCA1) (Homo sapiens, UniProt O95477)
T1 construct: recombinant ABCA1 peptide (Abcam #ab125995), C-terminal domain 2085–2245aa
T1 sequence (O95477 2085-2245): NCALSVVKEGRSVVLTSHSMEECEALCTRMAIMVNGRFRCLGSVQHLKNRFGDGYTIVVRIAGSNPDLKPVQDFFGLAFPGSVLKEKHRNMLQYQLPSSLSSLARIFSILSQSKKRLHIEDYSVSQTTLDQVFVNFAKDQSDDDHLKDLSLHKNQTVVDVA

T2: recombinant human retinal dehydrogenase-1 (ALDH1A1) (human, UniProt P00352 1-501)
T2 construct: retinal dehydrogenase 1 (aldehyde dehydrogenase 1 family, member A1), human, recombinant; also called ALDHA1; aldehyde dehydrogenase 1 family, member A1
T2 sequence (looked up): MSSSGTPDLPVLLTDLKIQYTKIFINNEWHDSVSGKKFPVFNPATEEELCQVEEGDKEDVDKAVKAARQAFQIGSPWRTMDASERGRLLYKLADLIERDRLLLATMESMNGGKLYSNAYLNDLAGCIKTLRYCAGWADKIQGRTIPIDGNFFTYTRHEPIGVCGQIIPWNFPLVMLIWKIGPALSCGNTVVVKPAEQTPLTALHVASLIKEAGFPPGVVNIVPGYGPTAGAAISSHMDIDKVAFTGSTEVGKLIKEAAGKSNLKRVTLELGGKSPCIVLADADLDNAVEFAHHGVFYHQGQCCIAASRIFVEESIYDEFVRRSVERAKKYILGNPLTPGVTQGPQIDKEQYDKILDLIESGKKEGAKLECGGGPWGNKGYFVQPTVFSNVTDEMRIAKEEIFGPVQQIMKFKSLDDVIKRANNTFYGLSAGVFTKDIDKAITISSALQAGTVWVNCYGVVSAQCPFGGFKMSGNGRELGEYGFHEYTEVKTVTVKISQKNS


Legend:
[1] = biological target: T1, ATP-binding cassette transporter A1 (ABCA1); assay: SPR (Biacore […], immobilized ABCA1 C-terminal peptide on CM5 chip); also identified by NPOT in THP-1 extract
[2] = biological target: T2, recombinant human retinal …; assay: SPR; Biacore 3000; ABCA1 peptide immobilised on a CM5 chip by amine coupling; proteins dialysed against HBS-E (10 mM Hepes, 150 mM NaCl, 3 mM EDTA); ALDH1A1 injected at 6e-8 to 1e-6 M; 1:1 fit (Langmuir or drifting baseline); details: both partners purified

Row | Ka [2] | Kd [2] | Molecule | Kd [1]
1 |  |  | CN1c2ccccc2C(=O)N2CCc3c([nH]c4ccccc34)C21 (stereo in doubt) [evodiamine] | 810 nM
2 | 1.25e+06 M⁻¹ | 803 nM | recombinant ABCA1 peptide (Abcam #ab125995, covering C-terminal domain 2085-2245aa) (domain or fragment, UniProt O95477 2085-2245, looked up, check the Abcam data sheet; source: bought: Abcam #ab125995, recombinant) NCALSVVKEGRSVVLTSHSMEECEALCTRMAIMVNGRFRCLGSVQHLKNRFGDGYTIVVRIAGSNPDLKPVQDFFGLAFPGSVLKEKHRNMLQYQLPSSLSSLARIFSILSQSKKRLHIEDYSVSQTTLDQVFVNFAKDQSDDDHLKDLSLHKNQTVVDVA | 
